Data on 24 substances can be found in patent publication US9266930.

Assay [1] deals with HLA-A*1101 (Human).
Assay [2] addresses HLA-A*0301 (human). Nature of the assay: competition with 125I-labeled probe peptide for purified HLA, gel filtration.
In assay [3] the target is HLA-A*1101 (human). Described as above.
Assay [4] concerns the target HLA-A*3301 (human). Described as above.
Assay [5] concerns the target HLA-A*6801 (human). The description is as above.
Assay [6] deals with HLA-A*3101 (human). The description is as above.
Assay [7] deals with HLA-A*0301 (human).
Assay [8] deals with HLA-A*1101 (human).
Assay [9] concerns the target HLA-A*3301 (human).
Assay [10] has as its target HLA-A*3101 (human).
The target of assay [11] is HLA-A*6801 (human).

Like-named read-outs stand apart in the source and are kept apart here.

In the case of “[…] (EXP position 83, 10 amino acids) (peptide; other documents disagree on this pair)”, the binding affinity ratio (IC50 of standard peptide / IC50 of test peptide) with HLA-A*0201 (Human) is 0.038. Same read-out and setting: in the case of “[…] (EXP position 84, 9 amino acids) (peptide; other documents disagree on this pair)” it was 0.035. Same read-out and setting: in the case of “[…] (EXP position 84, 10 amino acids) (peptide; other documents disagree on this pair)” it was 0.0059. As to “[…] (LSA, position 68, 9 amino acids) (peptide; other documents disagree on this pair)”, in the assay with HLA-A*1101 (Human) [1], the binding affinity ratio (IC50 of standard peptide / IC50 of test peptide) amounted to 0.0038. As for “[…] (LSA, position 1704, 9 amino acids) (peptide; other documents disagree on this pair)”, the binding affinity ratio (IC50 of standard peptide / IC50 of test peptide) with HLA-A*1101 (Human) [1] amounted to 0.0007. Still for that read-out and setting: then “[…] (LSA, position 1825, 10 amino acids) (peptide; other documents disagree on this pair)”, with 0.0009. Same read-out and setting: in the case of “[…] (LSA, position 1834, 10 amino acids) (peptide; other documents disagree on this pair)” it was 0.0007; in that of “[…] (LSA, position 1854, 9 amino acids) (peptide; other documents disagree on this pair)”, 0.034; in that of “[…] (LSA, position 1854, 10 amino acids) (peptide; other documents disagree on this pair)”, 0.049. Turning to “[…] (P. falciparum EXP-1, position 79, 10 amino acids) (peptide; other documents disagree on this pair)”, in the assay with HLA-A*0201 (Human), the binding affinity ratio (IC50 of standard peptide / IC50 of test peptide) is 0.0022. The same measure, in the same setting: then “[…] (P. falciparum EXP-1, position 80, 9 amino acids) (peptide; other documents disagree on this pair)”, with 0.021. Turning to “[…] (P. falciparum LSA, position 1388, 9 amino acids) (peptide; other documents disagree on this pair)”, the results for the binding affinity ratio (relative to standard peptide) with HLA-A*0301 (human) [2] and in the assay with HLA-A*1101 (human) [3] were 0.0001 and 0.0002, respectively. For “[…] (P. falciparum LSA, position 1575, 9 amino acids) (peptide; other documents disagree on this pair)”, in that order: 0.0001 and 0.0002. With “[…] (P. falciparum LSA, position 1609, 9 amino acids) (peptide; other documents disagree on this pair)”, the binding affinity ratio (relative to standard peptide) was determined as 0.0001 in the assay with HLA-A*0301 (human) [2] and 0.0002 with HLA-A*1101 (human) [3].

“[…] (P. falciparum LSA, position 1626, 10 amino acids) (peptide; other documents disagree on this pair)”: the binding affinity ratio (relative to standard peptide) in the assay with HLA-A*0301 (human) [2] stood at 0.0001; in the assay with HLA-A*1101 (human) [3], 0.0002.

For “[…] (P. falciparum LSA, position 1660, 10 amino acids) (peptide; other documents disagree on this pair)”, the binding affinity ratio (relative to standard peptide) amounted to 0.0001 in the assay with HLA-A*0301 (human) [2]; 0.0008 with HLA-A*3301 (human) [4]; 0.0029 with HLA-A*6801 (human) [5]; 0.0009 in the assay with HLA-A*3101 (human) [6]; 0.0002 with HLA-A*1101 (human) [3]. As for “[…] (P. falciparum LSA, position 1713, 10 amino acids) (peptide; other documents disagree on this pair)”, the binding affinity ratio (relative to standard peptide) in the assay with HLA-A*3301 (human) [4] was 0.0055; with HLA-A*6801 (human) [5], 0.0046; with HLA-A*3101 (human) [6], 0.0009; in the assay with HLA-A*1101 (human) [3], 0.0002.

In the case of “[…] (P. falciparum SSP2, position 31, 9 amino acids) (peptide; other documents disagree on this pair)”, the binding affinity ratio (relative to standard peptide) with HLA-A*0301 (human) [7] is 0.0005; with HLA-A*1101 (human) [8] it was 0.0002. “[…] (Pf LSA 16, 9-mer A03 supermotif peptide) (peptide; other documents disagree on this pair)”: the values for the binding affinity ratio (IC50 of standard peptide / IC50 of test peptide) in the assay with HLA-A*0301 (human) [7] and with HLA-A*1101 (human) [8] were 0.026 and 0.01, respectively. For “[…] (Pf LSA 68, 9-mer A03 supermotif peptide) (peptide; other documents disagree on this pair)”, in that order: 0.0028 and 0.0038. Regarding “[…] (Pf LSA 1631, 10-mer A03 supermotif peptide) (peptide; other documents disagree on this pair)”, the binding affinity ratio (IC50 of standard peptide / IC50 of test peptide) in the assay with HLA-A*3301 (human) [9] is 0.0011; with HLA-A*3101 (human) [10] it was 0.0086. On to “[…] (Pf LSA 1693, 9-mer A03 supermotif peptide) (peptide; other documents disagree on this pair)”, for which the binding affinity ratio (IC50 of standard peptide / IC50 of test peptide) in the assay with HLA-A*6801 (human) [11] came to 0.0054.

As for “[…] (Pf LSA 1704, 9-mer A03 supermotif peptide) (peptide; other documents disagree on this pair)”, the binding affinity ratio (IC50 of standard peptide / IC50 of test peptide) with HLA-A*3301 (human) [9] was determined as 0.0043; in the assay with HLA-A*6801 (human) [11], 0.32; with HLA-A*3101 (human) [10], 0.0025; in the assay with HLA-A*1101 (human) [8], 0.0007. Regarding “[…] (Pf LSA 1834, 10-mer A03 supermotif peptide) (peptide; other documents disagree on this pair)”, the binding affinity ratio (IC50 of standard peptide / IC50 of test peptide) amounted to 0.0081 with HLA-A*0301 (human) [7], 0.0009 in the assay with HLA-A*3301 (human) [9], 0.0042 in the assay with HLA-A*3101 (human) [10] and 0.0007 in the assay with HLA-A*1101 (human) [8].
